Tests used:
[1] = biological target: human DSG2 on cells (HeLa cells; polarized T84 cells) (human) (UniProt Q14126); assay: attachment of 3H-labelled Ad3 virus (competitor) to HeLa cells pre-incubated with the dimeric knob
[2] = biological target: human DSG2 on cells (HeLa cells; polarized T84 cells) (human) (UniProt Q14126); assay: cell-based or functional assay
[3] = biological target: T1, human DSG2 on cells (HeLa cells; polarized T84 cells) (human, UniProt Q14126 50-1118); assay: cell-based or functional assay
T1 sequence: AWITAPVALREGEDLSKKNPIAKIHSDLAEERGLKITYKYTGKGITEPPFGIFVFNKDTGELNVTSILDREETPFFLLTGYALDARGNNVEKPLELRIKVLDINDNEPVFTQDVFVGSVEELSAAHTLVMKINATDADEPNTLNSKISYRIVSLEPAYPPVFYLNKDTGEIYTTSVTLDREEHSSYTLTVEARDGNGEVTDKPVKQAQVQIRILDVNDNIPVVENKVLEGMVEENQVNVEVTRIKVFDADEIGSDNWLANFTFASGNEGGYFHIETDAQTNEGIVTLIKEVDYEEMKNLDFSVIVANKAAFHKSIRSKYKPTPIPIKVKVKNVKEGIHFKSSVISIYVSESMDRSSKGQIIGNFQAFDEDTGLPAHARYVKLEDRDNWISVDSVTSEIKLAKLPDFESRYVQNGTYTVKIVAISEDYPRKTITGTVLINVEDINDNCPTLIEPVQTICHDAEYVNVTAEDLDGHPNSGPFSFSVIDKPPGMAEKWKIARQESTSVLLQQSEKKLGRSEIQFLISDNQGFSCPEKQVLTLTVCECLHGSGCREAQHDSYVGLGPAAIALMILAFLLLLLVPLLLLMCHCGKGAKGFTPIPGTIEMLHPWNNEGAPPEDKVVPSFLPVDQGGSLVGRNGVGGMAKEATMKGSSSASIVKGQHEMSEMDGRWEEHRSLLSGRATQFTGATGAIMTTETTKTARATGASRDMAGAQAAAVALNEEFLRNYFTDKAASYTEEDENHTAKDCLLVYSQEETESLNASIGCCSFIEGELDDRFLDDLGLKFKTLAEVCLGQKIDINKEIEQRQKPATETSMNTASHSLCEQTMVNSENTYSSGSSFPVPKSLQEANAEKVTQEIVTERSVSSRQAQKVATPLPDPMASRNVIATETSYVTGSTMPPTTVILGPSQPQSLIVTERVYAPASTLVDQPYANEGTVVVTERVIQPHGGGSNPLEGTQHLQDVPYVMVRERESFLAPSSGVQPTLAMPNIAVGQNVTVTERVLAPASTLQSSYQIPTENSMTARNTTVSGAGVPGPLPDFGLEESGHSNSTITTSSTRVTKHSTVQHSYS

[4] = biological target: T1, human DSG2 on cells (HeLa cells; …); assay: cell-based or functional assay; remark: listed apart in the source
[5] = biological target: T2, Recombinant human DSG2 protein (Leinco Technologies) (human, UniProt Q14126 50-609); assay: SPR (BIAcore 3000), DSG2 immobilised, BIAeval; as printed in this row, but kd/ka of the row gives 24.9 nM and paragraph 239 gives 405-fold over wt: the KD cells of Y250F and V239D look interchanged on the sheet
T2 construct: also called soluble DSG2; soluble recombinant DSG2
T2 sequence: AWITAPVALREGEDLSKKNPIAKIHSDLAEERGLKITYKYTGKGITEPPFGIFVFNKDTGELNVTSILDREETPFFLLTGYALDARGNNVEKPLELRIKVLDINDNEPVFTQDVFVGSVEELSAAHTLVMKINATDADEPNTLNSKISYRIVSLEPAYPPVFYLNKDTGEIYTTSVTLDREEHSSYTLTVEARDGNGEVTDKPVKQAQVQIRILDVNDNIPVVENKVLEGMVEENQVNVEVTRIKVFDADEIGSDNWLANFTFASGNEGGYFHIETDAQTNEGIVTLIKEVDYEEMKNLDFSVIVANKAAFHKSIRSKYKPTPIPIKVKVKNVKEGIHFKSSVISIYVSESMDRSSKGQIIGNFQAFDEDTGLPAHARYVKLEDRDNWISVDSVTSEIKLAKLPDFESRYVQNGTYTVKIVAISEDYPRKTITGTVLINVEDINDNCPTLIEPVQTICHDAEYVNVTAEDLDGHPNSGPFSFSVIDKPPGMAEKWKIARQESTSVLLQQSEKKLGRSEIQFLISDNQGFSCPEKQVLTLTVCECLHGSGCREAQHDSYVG

[6] = biological target: T2, Recombinant human DSG2 protein (Leinco …); assay: SPR (BIAcore 3000), DSG2 immobilised on CM4 chip, knob injected
[7] = biological target: T2, Recombinant human DSG2 protein (Leinco …); assay: SPR (BIAcore 3000), DSG2 immobilised on the sensor chip, knobs injected at 2.5 to 10 µg/ml, BIAeval
[8] = biological target: T2, Recombinant human DSG2 protein (Leinco …); assay: SPR (BIAcore 3000), DSG2 immobilised, BIAeval; as printed in this row, but kd/ka of the row gives 11.4 nM and paragraph 239 gives 885-fold over wt: the KD cells of Y250F and V239D look interchanged on the sheet
[9] = biological target: T2, Recombinant human DSG2 protein (Leinco …); assay: Western blot of the blotted knob probed with soluble hDSG2, anti-DSG2 (6D8), HRP-anti-mouse IgG [upper panel]
soluble CD46 = biological target: T3, soluble CD46 (UniProt P15529 35-343); assay: Western blot, soluble CD46 as probe, anti-CD46 mAb
T3 construct: also called sCD46
T3 sequence: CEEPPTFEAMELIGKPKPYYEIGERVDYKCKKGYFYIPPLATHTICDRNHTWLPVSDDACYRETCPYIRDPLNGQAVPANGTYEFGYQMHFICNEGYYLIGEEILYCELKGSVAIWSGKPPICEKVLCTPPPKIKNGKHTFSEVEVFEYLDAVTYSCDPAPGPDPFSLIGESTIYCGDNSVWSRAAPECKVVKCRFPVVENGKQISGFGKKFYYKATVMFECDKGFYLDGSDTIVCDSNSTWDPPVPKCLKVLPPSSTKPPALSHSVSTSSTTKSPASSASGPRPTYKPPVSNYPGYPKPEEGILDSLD

[10] = biological target: T2, Recombinant human DSG2 protein (Leinco …); assay: not given; SPR on immobilised DSG2 by the context (FIG. 7)
DSG2 = biological target: T4, DSG2 (Homo sapiens, UniProt Q14126); assay: Surface plasmon resonance of non-dimerized Ad3 fiber knobs on immobilized DSG2; type: binding; settings: knobs without dimerization domain
T4 construct: purchased Leinco Technologies, Inc. (St. Louis, Mo.)
T4 sequence (Q14126 50-609 limits assumed): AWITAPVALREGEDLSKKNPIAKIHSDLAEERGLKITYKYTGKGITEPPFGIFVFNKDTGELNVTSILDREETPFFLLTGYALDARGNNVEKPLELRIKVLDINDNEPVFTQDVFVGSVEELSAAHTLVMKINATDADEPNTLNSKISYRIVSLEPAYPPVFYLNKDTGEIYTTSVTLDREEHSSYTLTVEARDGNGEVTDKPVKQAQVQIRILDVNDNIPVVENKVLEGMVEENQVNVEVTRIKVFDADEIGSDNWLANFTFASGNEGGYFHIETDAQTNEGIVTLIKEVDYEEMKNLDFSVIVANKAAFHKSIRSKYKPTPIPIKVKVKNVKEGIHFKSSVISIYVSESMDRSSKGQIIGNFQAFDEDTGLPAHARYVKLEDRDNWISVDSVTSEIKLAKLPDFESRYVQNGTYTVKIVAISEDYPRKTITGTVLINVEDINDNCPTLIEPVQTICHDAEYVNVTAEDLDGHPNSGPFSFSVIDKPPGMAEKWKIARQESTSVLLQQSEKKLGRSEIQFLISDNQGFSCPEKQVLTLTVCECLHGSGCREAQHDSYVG
Method: FIG. 7. SPR analysis of non-dimerized Ad3 fiber knob interactions with DSG2. A) DSG2 was immobilized on sensorchips, and background was automatically subtracted from the control flow cell. The Ad3 fiber knobs (w/o dimerization domain: “noDD”) were injected for 3 minutes at 2.5 μg/ml followed by a 2.5 minutes dissociation period. B) Summary of SPR data. […] The extracted data are resumed in the table. Wt=Ad3 fiber knob without mutations
Acquisitions were done on a BIAcore 3000 instrument. HBS-N (GE-Healthcare, Pittsburgh, Pa.) supplemented with 2 mM CaCl2 was used as running buffer in all experiments at a flow rate of 5 μl/min Immobilization on CM4 sensorchip (BIAcore) was performed using DSG2 at 10 μg/ml diluted in 10 mM Acetate buffer pH 4.5 injected for 10 minutes on ethyl(dimethylaminopropyl) carbodiimide (EDC)/N-Hydroxysuccinimide (NHS) activated flow-cell. A control flow-cell was activated by (EDC/NHS) and inactivated by ethanolamine Different concentrations of Ad3 fiber knob proteins were injected for 3 minutes association followed by 2.5 minutes dissociation time, and the signal was automatically subtracted from the background of the ethanolamine deactivated EDC-NHS flow cell. Kinetic and affinity constants were calculated using the BIAeval software.

## dimeric Ad3 fiber knob mutant N186D, D261N, L296R (designed binder)
[1]
  Inhibition of attachment in the presence of dimeric knob (JO-1 = 100%): 18.5%
[2]
  Inhibition of infection in the presence of dimeric knob (JO-1 = 100%): 0%

B1: JO-1 (self-dimerizing trimeric wild-type Ad3 fiber knob) (designed binder)
chain: MKVSALKEKVSALKEKVSALKEKVSALKEKVSALKEGSGGGSGGGSGGGSNSIALKNNTLWTGPKPEANCIIEYGKQNPDSKLTLILVKNGGIVNGYVTLMGASDYVNTLFKNKNVSINVELYFDATGHILPDSSSLKTDLELKYKQTADFSARGFMPSTTAYPFVLPNAGTHNENYIFGQCYYKASDGALFPLEVTVMLNKRLPDSRTSYVMTFLWSLNAGLAPETTQATLITSPFTFSYIREDD
[3]
  IC50 (read off the curve), GFP MFI after Ad3-GFP infection of HeLa cells: ~0.6 µg/mL
[4]
  IC50 (read off the curve), % GFP-positive cells after Ad3-GFP infection of HeLa cells: ~5 µg/mL

B2: Ad3 fiber knob mutant V239D without dimerization domain (ligand)
chain: NKLCSKLGNGLTFDSSNSIALKNNTLWTGPKPEANCIIEYGKQNPDSKLTLILVKNGGIVNGYVTLMGASDYVNTLFKNKNVSINVELYFDATGHILPDSSSLKTDLELKYKQTADFSARGFMPSTTAYPFDLPNAGTHNENYIFGQCYYKASDGALFPLEVTVMLNKRLPDSRTSYVMTFLWSLNAGLAPETTQATLITSPFTFSYIREDD
notes: range 108-319; also called V239D/noDD; not shown: N-terminal 6-His tag of pQE30 and linker
[5]
  Kd: 11.4 nM
[6]
  fold higher affinity than wt Ad3knob/noDD: 405 fold
[7]
  koff: 0.00266 s⁻¹
  kon: 107000 M⁻¹ s⁻¹

B3: Ad3 fiber knob mutant Y250F without dimerization domain (ligand)
chain: NKLCSKLGNGLTFDSSNSIALKNNTLWTGPKPEANCIIEYGKQNPDSKLTLILVKNGGIVNGYVTLMGASDYVNTLFKNKNVSINVELYFDATGHILPDSSSLKTDLELKYKQTADFSARGFMPSTTAYPFVLPNAGTHNENFIFGQCYYKASDGALFPLEVTVMLNKRLPDSRTSYVMTFLWSLNAGLAPETTQATLITSPFTFSYIREDD
notes: range 108-319; also called Y250F/noDD; not shown: N-terminal 6-His tag of pQE30 and linker
[8]
  Kd: 24.9 nM
[6]
  fold higher affinity than wt Ad3knob/noDD: 885 fold
[7]
  koff: 0.00264 s⁻¹
  kon: 232000 M⁻¹ s⁻¹

B4: Ad3-S/Kn (ligand)
chain: NSIALKNNTLWTGPKPEANCIIEYGKQNPDSKLTLILVKNGGIVNGYVTLMGASDYVNTLFKNKNVSINVELYFDATGHILPDSSSLKTDLELKYKQTADFSARGFMPSTTAYPFVLPNAGTHNENYIFGQCYYKASDGALFPLEVTVMLNKRLPDSRTSYVMTFLWSLNAGLAPETTQATLITSPFTFSYIREDD
notes: also called wild-type Ad3 fibers
[9]
  binding result: no binding
Soluble CD46
  binding result: no binding

B5: JO-4 (affinity-enhanced version of JO-1) (designed binder)
chain: MRGSHHHHHHGSKVSALKEKVSALKEKVSALKEKVSALKEKVSALKEGSGGGSGGGSGGGSNSIALKNNTLWTGPKPEANCIIEYGKQNPDSKLTLILVKNGGIVNGYVTLMGASDYVNTLFKNKNVSINVELYFDATGHILPDSSSLKTDLELKYKQTADFSARGFMPSTTAYPFVLPNAGTHNENFIFGQCYYKASDGALFPLEVTVMLNKRLPDSRTSYVMTFLWSLNAGLAPETTQATLITSPFTFSYIREDD
[10]
  Kd: 11.4 nM

B6: N293S/noDD (protein)
chain: NKLCSKLGNGLTFDSSNSIALKNNTLWTGPKPEANCIIEYGKQNPDSKLTLILVKNGGIVNGYVTLMGASDYVNTLFKNKNVSINVELYFDATGHILPDSSSLKTDLELKYKQTADFSARGFMPSTTAYPFVLPNAGTHNENYIFGQCYYKASDGALFPLEVTVMLNKRLPDSRTSYVMTFLWSLSAGLAPETTQATLITSPFTFSYIREDD
modifications: left off: small tags and cut ends
DSG2
  Association rate to DSG2: association rate was lowest

B7: wt Ad3 knob: wild-type trimeric Ad3 fiber knob without the dimerization domain (protein)
chain: NKLCSKLGNGLTFDSSNSIALKNNTLWTGPKPEANCIIEYGKQNPDSKLTLILVKNGGIVNGYVTLMGASDYVNTLFKNKNVSINVELYFDATGHILPDSSSLKTDLELKYKQTADFSARGFMPSTTAYPFVLPNAGTHNENYIFGQCYYKASDGALFPLEVTVMLNKRLPDSRTSYVMTFLWSLNAGLAPETTQATLITSPFTFSYIREDD
modifications: left off: small tags and cut ends
notes: wild-type trimeric Ad3 fiber knob without the dimerization domain
DSG2
  Association rate to DSG2: slow association rate

Source: patent US20150246949A1, “Desmoglein 2 (DSG2) Binding Proteins and Uses Therefor” (UNIVERSITY OF WASHINGTON THROUGH ITS CENTER FOR …, priority 2012, published 2015)
